Measured values reported in patent US20180193452A1.

Molecular target: wild type CAR (WT CAR): human FcεRIα extracellular domain fused to CD3ζ (human)
Sequence (chain, as listed by the source): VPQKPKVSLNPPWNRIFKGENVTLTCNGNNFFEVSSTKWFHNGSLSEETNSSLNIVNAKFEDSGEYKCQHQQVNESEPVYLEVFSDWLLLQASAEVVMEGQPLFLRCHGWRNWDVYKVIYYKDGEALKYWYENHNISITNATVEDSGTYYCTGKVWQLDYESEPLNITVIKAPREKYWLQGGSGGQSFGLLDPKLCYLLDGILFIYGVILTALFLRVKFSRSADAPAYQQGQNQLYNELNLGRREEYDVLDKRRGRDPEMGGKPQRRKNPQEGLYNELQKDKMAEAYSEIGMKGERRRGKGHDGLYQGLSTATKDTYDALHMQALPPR
Experiment: cell-based or functional assay

Chain of purified human IgE (Abcam) (P01854 other isoform, or with tags, fused parts or gaps): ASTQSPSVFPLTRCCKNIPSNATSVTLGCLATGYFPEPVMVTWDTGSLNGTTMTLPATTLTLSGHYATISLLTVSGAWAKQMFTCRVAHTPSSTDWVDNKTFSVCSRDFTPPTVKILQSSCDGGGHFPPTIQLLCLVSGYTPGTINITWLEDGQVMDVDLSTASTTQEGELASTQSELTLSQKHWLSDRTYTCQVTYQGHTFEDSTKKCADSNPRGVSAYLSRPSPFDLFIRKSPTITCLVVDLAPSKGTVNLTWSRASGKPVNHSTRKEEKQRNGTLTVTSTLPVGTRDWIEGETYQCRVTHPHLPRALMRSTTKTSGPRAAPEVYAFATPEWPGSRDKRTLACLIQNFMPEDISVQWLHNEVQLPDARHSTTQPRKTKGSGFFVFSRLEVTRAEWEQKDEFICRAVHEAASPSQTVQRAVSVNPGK

“purified human IgE (Abcam) (from UniProt P01854 1-428) (antibody)” gave a suppression of CD69 up-regulation by U266 cells, free IgE at 1.7 µg/ml of over 2 fold and a suppression of CD69 up-regulation by U266 cells, free IgE at 10 µg/ml of over 4 fold.
